The text below walks through data of publication PMC6995612.

In the experiment the target is Firefly Luciferase, heat-aggregated [luciferase: P08659]. As to the kind of experiment: co-sedimentation; 1.5 μM ClpG-DWB with 2 μM aggregated Luciferase in buffer A (50 mM Tris pH 7.5, 50 mM KCl, 10 mM MgCl2, 2 mM DTT), 2 mM ATP, 25 °C, 10 min; 1 μM DnaK with 0.2 μM DnaJ added to selected reactions; centrifugation at 13,000 rpm, pellet washed once; SDS-PAGE, Coomassie, ImageJ; control without aggregated Luciferase.

The substance “P. aeruginosa ClpGGI-E383A/E732A (enzyme)” came in with a fold reduction of binding on addition of DnaK (with DnaJ) of 1.86 fold.
